FireProtDB (doi:10.1016/s0006-3495(99)76955-9)

B1: Azurin, P00282 (parent)
chain: MLRKLAAVSLLSLLSAPLLAAECSVDIQGNDQMQFNTNAITVDKSCKQFTVNLSHPGNLPKNVMGHNWVLSTAADMQGVVTDGMASGLDKDYLKPDDSRVIAHTKLIGSGEKDSVTFDVSKLKEGEQYMFFCTFPGHSALMKGTLTLK

Variants of: B1
Conditions: Pseudomonas aeruginosa (strain ATCC 15692 / DSM 22644 / CIP 104116 / JCM 14847 / LMG 12228 / 1C / PRS 101 / PAO1); pH 7.03; 20 °C; Thermal; DSC; phosphate buffer 10 mM; sodium chloride 40 microM; reversible: no; structure 5AZU; whole UniProt chain shown

Variant | unfolding enthalpy (calorimetric) [kcal/mol] | unfolding free energy [kcal/mol]
MLRKLAAVSLLSLLSAPLLAAEASVDIQGNDQMQFNTNAITVDKSAKQFTVNLSHPGNLPKNVMGHNWVLSTAADMQGVVTDGMASGLDKDYLKPDDSRVIAHTKLIGSGEKDSVTFDVSKLKEGEQYMFFCTFPGHSALMKGTLTLK [C23A C46A] | 16 | 7.79
